Results as given in patent US20230094463A1 (TRUEBINDING, published 2023).

T1: Gal3 Peptide 7 (AYPGAPGAYPGAPAPGVYPG) (human)
T1 peptide: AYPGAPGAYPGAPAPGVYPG

T2: Gal3 Peptide 1 (ADNFSLHDALSGSGNPNPQG) (human)
T2 peptide: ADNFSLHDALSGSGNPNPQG

T3: Gal3 Peptide 6 (GAYPGQAPPGAYPGAPGAYP) (human)
T3 peptide: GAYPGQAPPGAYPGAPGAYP


How the values were obtained:
[1] = target: T4, Human Galectin-3 protein (Acro Biosystems, GA3-H5129) (human, UniProt P17931 2-250); assay: ELISA, blocking of INSR binding to coated Gal3
T4 construct: Bought protein; also called Gal3-ECD-His; Gal3-His; not shown: linker-spaced 6-histidine tag

[2] = target: T1, Gal3 Peptide 7 (AYPGAPGAYPGAPAPGVYPG); assay: peptide ELISA (peptide coated)
[3] = target: T2, Gal3 Peptide 1 (ADNFSLHDALSGSGNPNPQG); assay: peptide ELISA (peptide coated)
[4] = target: T4, Human Galectin-3 protein (Acro …); assay: blocking ELISA (Gal3 coated; antibody 3 µg/mL + INSR)
[5] = target: T4, Human Galectin-3 protein (Acro …); assay: ELISA, blocking of INSR binding to coated Gal3; remark: listed apart in the source
[6] = target: T4, Human Galectin-3 protein (Acro …); assay: SPR (Biacore T200), antibody captured, Galectin-3 as analyte
[7] = target: T5, Human GAL3 protein (TrueBinding, QCB200349 / QCB200352; R&D Systems, 8259-GA) (human, UniProt P17931 2-250); assay: blocking ELISA (GAL3 coated; antibody + biotinylated ITGa3)
T5 construct: also called human galectin-3

[8] = target: T3, Gal3 Peptide 6 (GAYPGQAPPGAYPGAPGAYP); assay: peptide ELISA: Gal3 peptide coated on the plate, antibody (hIgG4 S228P) at 5 µg/mL, anti-human IgG-HRP, A450 (Example 18)
[9] = target: T1, Gal3 Peptide 7 (AYPGAPGAYPGAPAPGVYPG); assay: as above
[10] = target: T2, Gal3 Peptide 1 (ADNFSLHDALSGSGNPNPQG); assay: as above
[11] = target: T5, Human GAL3 protein (TrueBinding, …); assay: blocking ELISA (GAL3 coated; antibody + biotinylated ITGaV)
[12] = target: T5, Human GAL3 protein (TrueBinding, …); assay: blocking ELISA (GAL3 coated; antibody + biotinylated ITGb3)
[13] = target: T3, Gal3 Peptide 6 (GAYPGQAPPGAYPGAPGAYP); assay: peptide ELISA (peptide coated; antibody hIgG4 [S228P], 5 µg/mL)
[14] = target: T1, Gal3 Peptide 7 (AYPGAPGAYPGAPAPGVYPG); assay: as above
[15] = target: T2, Gal3 Peptide 1 (ADNFSLHDALSGSGNPNPQG); assay: as above

Binder	Gal3-INSR Blocking @ 3 µg/mL [1] [%]	binding result [2]	binding result [3]	Gal3-INSR binding remaining, % of unblocked sample [4] [%]	IC50 (read off the curve) [5] [µg/mL]	Kd [6] [nM]	percent blockade of GAL3-ITGa3 interaction [7] [%]	binding result [8]	binding result [9]	binding result [10]	percent blockade of GAL3-ITGaV interaction [11] [%]	percent blockade of GAL3-ITGb3 interaction [12] [%]	binding result [13]	binding result [14]	binding result [15]
6H6.2D6 (antibody, V domains shown) VH: QIQLVQSGPELKKPGETVKISCKASGYTFTTYGMSWVKQAPGKGLKWMAWINTYSGVPTYADDFKGRFAFSLETSASTAYLQINNLTNEDTATYFCARGPYAMDYWGQGTSVTVSS VL: DIQMTQTTSSLSASLGDRVTISCSASQGISNYLNWYQQKPDGTVKLLIYYTSSLHSGVPSRFSGSGSGTDYSLTISNLEPEDIATYYCQQYSELPYTFGSGTKLEIK	100	binds	binds	< 5	~0.5	4.86									
23H9.2E4 (antibody, V domains shown) VH: QIQLVQSGPELKKPGETVKISCKASGYTFTTYAMSWVKQAPGKGLKWMGWINTYSGVPTYADDLKGRFAFSLETSASTAYLQINNLKNEDTATYFCARGPYAMDYWGQGTSVTVSS VL: DIQMTQTTSSLSASLGDRVTISCSASQGINNYLNWYQQKPDGTVKLLIYYASSLHSGVPSRFSGSGSGTDYSLTISNLEPEDIATYYCQQYSQVPYTFGSGTKLEIK	100			< 5		4.26	> 90	binds	binds	binds	> 90	> 90			
20H5.A3 (antibody, V domains shown) VH: QIQLVQSGPELKKPGESVKISCKASGYAFTTYGMSWVQQAPGKGLKWMGWVNTYSGVPTCADDFKGRFAFSLETSASTAYLQINNLRNEDTATYFCARGPYAMDYWGQGTSVTVSS VL: DIQMTQTTSSLSASLGDRVTINCSASQDISNYLNWYQQKPDGTVKLLIYYTSSLLSGVPSRFSGSGSGTDYSLTISNLEPEDIATYFCQQYSKLPYTFGSGTHLEIK	100			< 5	~0.5	3.95	> 90				> 90	> 90	binds	binds	binds
